We go through one substance from article PMC7943604.

Broadly, the stoichiometry N is a count of units in the complex or per binding partner.

The target of one assay is phosphorylated COPY^o2. The experiment in a line: stopped-flow fluorescence (sensitized emission of the FRET sensor); COPY^o2 or phosphorylated COPY^o2 constant at 200 nM, tubulin titrated; dissociation at 200 nM COPY^o2 and 4 µM tubulin by displacement with 60 µM unlabeled stathmin; 25 °C; 80 mM PIPES pH 6.8, 75 mM KCl, 2 mM MgCl2, 20 mM β-mercaptoethanol, 60 µM GTP.
In assay [1] the target is COPY^o2 (Atto532-stathmin-Atto647N). The assay is described as above.

For “tubulin (αβ-heterodimer) (from UniProt P02550 1-451; P02554 1-445) (complex)”, in the assay with phosphorylated COPY^o2, the KD, high affinity site was determined as 610 µM; the KD, low-affinity site is 12 µM; the koff, high affinity site worked out at 8 s⁻¹; the koff, low-affinity site turned out to be 2.3 s⁻¹. In the assay with phosphorylated COPY^o2, the kon, high affinity site was determined as 0.0128 µM⁻¹ s⁻¹ and the kon, low-affinity site turned out to be 0.17 µM⁻¹ s⁻¹. Moreover, in assay [1], the KD, high affinity site was 30 nM; the KD, low-affinity site amounted to 2 µM; the koff, high affinity site stood at 0.048 s⁻¹; the koff, low-affinity site was found to be 1.86 s⁻¹. Besides, in assay [1], the kon, high affinity site came out at 1.6 µM⁻¹ s⁻¹; the kon, low-affinity site was found to be 0.9 µM⁻¹ s⁻¹; the stoichiometry N stood at 2.
